These results are taken from patent US20100068199A1 (RINAT NEUROSCIENCE, published 2010).

Where two headings read alike, the source gives them in different places.

Test [1] addresses T1, recombinant human PCSK9 (human, UniProt Q8NBP7 31-692).
T1 construct: also called hPCSK9
The test can be described thus: Biacore; format not described. In general terms: In SPR one partner is held on a chip, and binding of the other changes the refractive index at the surface.

The target in test [2] is T2, recombinant mouse PCSK9 (mouse, UniProt Q80W65 35-694).
T2 construct: also called mPCSK9; murine PCSK9
T2 sequence (Q80W65 other isoform, or with tags, fused parts or gaps limits assumed): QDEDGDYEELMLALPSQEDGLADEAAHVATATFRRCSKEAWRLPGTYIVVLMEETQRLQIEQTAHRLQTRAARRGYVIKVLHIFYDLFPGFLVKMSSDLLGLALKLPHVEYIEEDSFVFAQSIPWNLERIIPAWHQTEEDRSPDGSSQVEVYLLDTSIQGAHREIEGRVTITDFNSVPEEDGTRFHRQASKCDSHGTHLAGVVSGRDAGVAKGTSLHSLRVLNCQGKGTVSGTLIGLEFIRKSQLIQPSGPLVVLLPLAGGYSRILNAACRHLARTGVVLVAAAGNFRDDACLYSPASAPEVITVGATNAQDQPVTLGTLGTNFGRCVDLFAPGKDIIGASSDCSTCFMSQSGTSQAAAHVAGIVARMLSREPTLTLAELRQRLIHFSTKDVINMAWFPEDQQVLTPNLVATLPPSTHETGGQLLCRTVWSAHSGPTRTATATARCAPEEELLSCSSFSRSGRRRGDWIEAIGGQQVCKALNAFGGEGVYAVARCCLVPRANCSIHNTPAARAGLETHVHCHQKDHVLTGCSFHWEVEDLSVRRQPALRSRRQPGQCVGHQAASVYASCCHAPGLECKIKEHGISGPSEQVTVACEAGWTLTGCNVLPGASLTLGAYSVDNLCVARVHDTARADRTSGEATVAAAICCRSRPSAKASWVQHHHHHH
Nature of the test: Biacore; format not described.

Test [3] has as its target T3, PCSK9.
T3 construct: neither names the species

A further test addresses rat PCSK9 in plasma (rat, UniProt P59996 31-691). The test can be described thus: antibody incubated with plasma, complexes purified and probed by Western blot. On the procedure:
To determine the species specificity of the anti-PCSK9 antibodies, antibodies were incubated with plasma from different species and the resultant complexes were purified and probed by an independent anti PCSK9 antibody on Western blots. […] Id.
(In general: In western blotting, separated proteins are transferred to a membrane and probed.)

The target in test [4] is T1, recombinant human PCSK9. The test can be described thus: ELISA, blocking: biotinylated human PCSK9 (0.4nM) binding to immobilized human LDLR extracellular domain, pH7.5. How it is done:
(§1) ELISA plates (Corning Mixisorb) were coated with a solution of 1 μg/ml recombinant LDLR extracellular domain (R&D Systems) in each well at 4 C overnight, blocked with 2% BSA+PBS for 2 hrs at room temperature, and then washed 5 times with washing buffer (1×PBS+0.05% Tween-20). Wells were incubated with 50 μl of indicated concentrations of biotinylated PCSK9 protein for 1 hr RT. LDLR-PCSK9 binding can be stabilized by adding 50 μl of 4% FDH+4% sucrose+PBS solution and incubate for 5 min. Wells were washed 5 times with washing buffer, incubated with 1:2000 dilution of HRP conjugated Strepavidin (Invitrogen) for 1 hr at RT, washed 5 times with washing buffer. TMB substrate was added to the wells, the solution was incubated 20 to 30 min at RT, and the reaction was terminated using 1 M phosphoric acid. Signals were read at 450 nm.
(In an ELISA, binding on a coated surface is turned into a signal by an enzyme label.)

Test [5] deals with T1, recombinant human PCSK9. Nature of the test: competition ELISA; antibody blocks biotinylated PCSK9 binding to immobilized recombinant LDLR extracellular domain.
For test [6], the target named is T2, recombinant mouse PCSK9. The description is as above.
In test [7] the target is T1, recombinant human PCSK9. Nature of the test: SPR (Biacore 3000); full-length IgG captured on anti-mouse IgG, PCSK9 injected. How it is done:
(§2) The affinities of PCSK9 antibodies to PCSK9 were measured on a surface plasmon resonance Biacore 3000 biosensor equipped with a research-grade sensor chip using HBS-EP running buffer (Biacore AB, Uppsala, Sweden—now GE Healthcare). Rabbit polyclonal anti-Ms IgGs were amine-coupled at saturating levels onto the chip using a standard N-hydroxysuccinimide/ethyldimethylaminopropyl carbodiimide (NHS/EDC) chemistry. The buffer was switched to HBS-EP+1 mg/mL BSA+1 mg/mL CM-dextran.
(§3) Dissociation was monitored for 5 min. The chip was regenerated after the last injection of each titration with two 30 sec pulses of 100 mM phosphoric acid. Buffer cycles provided blanks for double-referencing the data, which were then fit globally to a simple binding model using Biaevaluation software v.4.1. Affinities were deduced from the quotient of the kinetic rate constants (KD=koff/kₒₙ).

Test [8] deals with T2, recombinant mouse PCSK9. The description is as above. On the procedure: as §2, §3
Test [9] addresses T2, recombinant mouse PCSK9. The test can be described thus: ELISA, blocking: biotinylated mouse PCSK9 (0.8nM) binding to immobilized human LDLR extracellular domain, pH7.5. On the procedure:
as §1

For test [10], the target named is T1, recombinant human PCSK9. The test can be described thus: TR-FRET in solution at neutral pH: biotinylated human PCSK9 (30 nM) binding to Europium labeled LDLR extracellular domain (10 nM) blocked by the mAb.
Test [11] has as its target T3, PCSK9. The source holds these as a separate data set.

T1 sequence (Q8NBP7 31-692 limits assumed): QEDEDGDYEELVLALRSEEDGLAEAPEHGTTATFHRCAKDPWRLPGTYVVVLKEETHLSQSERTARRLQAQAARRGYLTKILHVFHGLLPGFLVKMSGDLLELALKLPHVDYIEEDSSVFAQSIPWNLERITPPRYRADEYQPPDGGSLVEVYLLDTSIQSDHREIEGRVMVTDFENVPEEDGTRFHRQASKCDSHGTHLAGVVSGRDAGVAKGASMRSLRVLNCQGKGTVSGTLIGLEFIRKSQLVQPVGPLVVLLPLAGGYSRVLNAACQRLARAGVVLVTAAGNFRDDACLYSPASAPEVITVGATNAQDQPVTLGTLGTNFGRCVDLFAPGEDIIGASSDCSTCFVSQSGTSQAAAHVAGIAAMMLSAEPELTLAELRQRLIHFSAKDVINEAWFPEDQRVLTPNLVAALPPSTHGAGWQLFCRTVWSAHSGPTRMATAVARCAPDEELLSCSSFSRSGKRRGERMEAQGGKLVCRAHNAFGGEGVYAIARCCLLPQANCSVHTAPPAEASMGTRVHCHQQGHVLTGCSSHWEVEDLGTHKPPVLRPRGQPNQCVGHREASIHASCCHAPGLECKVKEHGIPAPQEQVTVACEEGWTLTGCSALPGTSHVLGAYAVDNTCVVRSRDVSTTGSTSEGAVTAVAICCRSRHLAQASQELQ
Sequence of rat PCSK9 in plasma (P59996 31-691 limits assumed): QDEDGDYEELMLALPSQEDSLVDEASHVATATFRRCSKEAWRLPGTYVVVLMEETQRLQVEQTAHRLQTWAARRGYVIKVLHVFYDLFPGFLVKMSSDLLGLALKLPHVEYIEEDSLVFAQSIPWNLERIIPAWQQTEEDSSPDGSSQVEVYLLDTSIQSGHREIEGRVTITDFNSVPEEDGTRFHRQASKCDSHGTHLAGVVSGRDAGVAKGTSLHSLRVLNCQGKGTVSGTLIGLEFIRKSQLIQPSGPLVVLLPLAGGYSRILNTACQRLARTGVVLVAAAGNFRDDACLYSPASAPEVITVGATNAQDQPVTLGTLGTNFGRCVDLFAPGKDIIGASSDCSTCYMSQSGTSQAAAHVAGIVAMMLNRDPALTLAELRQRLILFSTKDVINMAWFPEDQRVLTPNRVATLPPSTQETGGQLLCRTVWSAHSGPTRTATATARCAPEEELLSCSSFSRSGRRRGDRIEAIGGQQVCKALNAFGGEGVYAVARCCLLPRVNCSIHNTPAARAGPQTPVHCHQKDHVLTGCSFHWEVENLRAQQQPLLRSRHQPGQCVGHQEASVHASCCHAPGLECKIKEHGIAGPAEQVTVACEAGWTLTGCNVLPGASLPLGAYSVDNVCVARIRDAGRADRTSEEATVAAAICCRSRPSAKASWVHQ
T3 sequence (prodomain, as listed by the source limits assumed, chain 1 of 2): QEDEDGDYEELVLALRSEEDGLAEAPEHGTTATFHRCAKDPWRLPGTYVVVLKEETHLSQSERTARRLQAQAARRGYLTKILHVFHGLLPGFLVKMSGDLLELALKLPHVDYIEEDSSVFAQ
T3 sequence (chain, as listed by the source limits assumed, chain 2 of 2): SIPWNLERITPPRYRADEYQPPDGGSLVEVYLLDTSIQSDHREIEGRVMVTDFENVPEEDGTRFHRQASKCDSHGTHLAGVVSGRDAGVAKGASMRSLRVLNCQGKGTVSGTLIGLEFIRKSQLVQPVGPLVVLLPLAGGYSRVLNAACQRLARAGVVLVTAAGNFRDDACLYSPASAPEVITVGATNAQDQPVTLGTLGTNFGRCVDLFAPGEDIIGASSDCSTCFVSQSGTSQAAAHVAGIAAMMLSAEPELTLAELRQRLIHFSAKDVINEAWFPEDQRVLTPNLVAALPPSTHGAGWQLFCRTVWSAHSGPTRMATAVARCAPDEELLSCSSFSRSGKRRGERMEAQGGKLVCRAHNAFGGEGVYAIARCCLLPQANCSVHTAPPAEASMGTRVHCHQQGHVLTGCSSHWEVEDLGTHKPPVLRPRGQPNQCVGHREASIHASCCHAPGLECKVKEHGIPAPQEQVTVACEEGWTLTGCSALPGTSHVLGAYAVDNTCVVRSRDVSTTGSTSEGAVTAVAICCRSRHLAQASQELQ

B1: L1L3 humanized anti-PCSK9 monoclonal antibody (antibody, V domains shown)
VH: QVQLVQSGAEVKKPGASVKVSCKASGYTFTSYYMHWVRQAPGQGLEWMGEISPFGGRTNYNEKFKSRVTMTRDTSTSTVYMELSSLRSEDTAVYYCARERPLYASDLWGQGTTVTVSS
VL: DIQMTQSPSSLSASVGDRVTITCRASQGISSALAWYQQKPGKAPKLLIYSASYRYTGVPSRFSGSGSGTDFTFTISSLQPEDIATYYCQQRYSLWRTFGQGTKLEIKR
For the molecule B1, the values for the equilibrium dissociation constant (Kd) with recombinant human PCSK9 [1], with recombinant mouse PCSK9 [2] and in the test with PCSK9 [3] were 0.1 nM, 0.2 nM and 7 pM, respectively.

B2: anti-PCSK9 antagonist monoclonal antibody 6F6 (antibody, V domains shown)
VH: EVQLQQSGPELVKPGASVKISCKASGYTFTDYYMNWVKQSHGKSLEWIGDINPNNGGTSYNQKFKGKATLTVDKSSSTAYMELRSLTSEDSAVYYCAGGGIYYRYDRNYFDYWGQGTTLTVSS
VL: DIQMTQTTSSLSASLGDRVTISCSASQGISNYLNWYQQKPDGTVKLLIYYTSSLHSGVPSRFSGSGSGTDYSLTISNLEPEDIATYYCQQYSKLPFTFGSGTKLEIK
notes: Murine full-length IgG from a hybridoma; also called 6F6.G10.3 (subclone); ATCC PTA-8984
For B2, the binding result with rat PCSK9 in plasma is listed as “binds”. Besides, the “IC50 (read off the curve)” value with recombinant human PCSK9 [4] is ~2 nM; in the test with recombinant mouse PCSK9 [9], ~10 nM. In addition, the IC50 (as a rule, the concentration needed to halve the response being measured) with recombinant human PCSK9 [5] amounted to 1.5 nM; with recombinant mouse PCSK9 [6] it was 10 nM; with recombinant human PCSK9 [10] it was 6.5 nM. For the same molecule, the dissociation constant Kd (commonly the equilibrium constant for the complex coming apart) came to 6.4 nM with recombinant human PCSK9 [7] and 17.7 nM with recombinant mouse PCSK9 [8]. For the same molecule, the koff (usually the first-order rate constant of dissociation) with recombinant human PCSK9 [7] is 0.000584 s⁻¹; with recombinant mouse PCSK9 [8], 0.00197 s⁻¹. Besides, the kon (usually the rate constant with which the complex forms) in the test with recombinant human PCSK9 [7] was 91500 M⁻¹ s⁻¹; with recombinant mouse PCSK9 [8], 111000 M⁻¹ s⁻¹.

B3: anti-PCSK9 antagonist monoclonal antibody 7D4 (antibody, V domains shown)
VH: EVKLVESEGGLVQPGSSMKLSCTASGFTFSDYYMAWVRQVPEKGLEWVANINYDGSNTSYLDSLKSRFIISRDNAKNILYLQMSSLKSEDTATYYCAREKFAAMDYWGQGTSVTVSS
VL: DIVMTQSHKFMSTSFGDRVSITCKASQDVSNALAWYQQKPGHSPKLLIFSASYRYTGVPDRFTGSGSGTDFTFTISSVQAEDLAVYYCQQHYSTPWTFGGGTKLEIKR
notes: Murine full-length IgG from a hybridoma; also called 7D4.4 (subclone); ATCC PTA-8983
Turning to B3, the binding result with rat PCSK9 in plasma was “binds”. In addition, the figures for the “IC50 (read off the curve)” value with recombinant human PCSK9 [4] and with recombinant mouse PCSK9 [9] were ~1 nM and ~0.9 nM, respectively. Further, the half-maximal inhibitory concentration (IC50) in the test with recombinant human PCSK9 [5] turned out to be 1.5 nM; with recombinant mouse PCSK9 [6], 1 nM; with recombinant human PCSK9 [10] it was 5.4 nM. Besides, the Kd came to 6.4 nM with recombinant human PCSK9 [7] and 1.3 nM in the test with recombinant mouse PCSK9 [8]. In addition, the koff with recombinant human PCSK9 [7] was found to be 0.000794 s⁻¹. Also, the association rate constant (kon) in the test with recombinant human PCSK9 [7] is 125000 M⁻¹ s⁻¹.

B4: anti-PCSK9 antagonist monoclonal antibody 5A10 (antibody, V domains shown)
VH: QVQLQQPGAELVKPGASVKLSCKASGYTFTSYWMHWVKQRPGQGLEWIGEINPSNGRTNYNEKFKSKATLTVDKSSSTAYMQLSSLTSEDSAVYYCARERPLYAMDYWGQGTSVTVSS
VL: DIVMTQSHKFMSTSVGDRVSITCKASQDVSTAVAWYQQKPGQSPKLLIYSASYRYTGVPDRFTGSGSGTDFTFTISSVQAEDLAVYYCQQRYSTPRTFGGGTKLEIKR
notes: Murine full-length IgG from a hybridoma; Mouse precursor of L1L3; also called 5A10.B8 (subclone)
As for B4, the binding result with rat PCSK9 in plasma is recorded as “binds”. Besides, the “IC50 (read off the curve)” value with recombinant human PCSK9 [4] is ~0.3 nM; with recombinant mouse PCSK9 [9] it was ~3 nM. The IC50 in the test with recombinant human PCSK9 [5] came out at 0.4 nM; with recombinant mouse PCSK9 [6], 3 nM; in the test with recombinant human PCSK9 [10], 6 nM. Also, the equilibrium dissociation constant (Kd) in the test with recombinant human PCSK9 [7] was 1 nM; with recombinant mouse PCSK9 [8], 3.9 nM; with PCSK9 [11], 1.1 nM. For the same molecule, the dissociation rate constant (koff) with recombinant human PCSK9 [7] came to 8.55e-05 s⁻¹; in the test with recombinant mouse PCSK9 [8] it was 0.000489 s⁻¹. Besides, the on-rate (kon) worked out at 84700 M⁻¹ s⁻¹ with recombinant human PCSK9 [7] and 127000 M⁻¹ s⁻¹ with recombinant mouse PCSK9 [8].

B5: anti-PCSK9 antagonist monoclonal antibody 4A5 (antibody, V domains shown)
VH: EVQLQQSGPELVKPGASVKISCKASGYTFTDYYMNWVKQSHGKSLEWIGDINPNNGGTTYNQKFKGKATLTVDKSYSTAYMELRSLTSEDSAVYYCARWLLFAYWGQGTLVTVSA
VL: DIVMTQSQKFMSTSVGDRVSVTCKASQNVGTNVAWYQQKPGQSPKALIYSASYRYSGVPDRFTGSGSGTDFTLTISNVLSEDLAEYFCQQFYSYPYTFGGGTKLEIKR
notes: Murine full-length IgG from a hybridoma; also called 4A5.G3 (subclone); ATCC PTA-8985
For the molecule B5, the binding result with rat PCSK9 in plasma was “binds”. Besides, the entries for the “IC50 (read off the curve)” value in the test with recombinant human PCSK9 [4] and with recombinant mouse PCSK9 [9] were ~0.2 nM and ~3 nM, respectively. In addition, the IC50 in the test with recombinant human PCSK9 [5] came out at 0.4 nM; with recombinant mouse PCSK9 [6], 3 nM; in the test with recombinant human PCSK9 [10], 7.1 nM. The Kd with recombinant human PCSK9 [7] is 2.8 nM; with recombinant mouse PCSK9 [8], 5.1 nM. The koff with recombinant human PCSK9 [7] is 0.000189 s⁻¹; in the test with recombinant mouse PCSK9 [8], 0.00072 s⁻¹. Further, the figures for the kon with recombinant human PCSK9 [7] and with recombinant mouse PCSK9 [8] were 66600 M⁻¹ s⁻¹ and 141000 M⁻¹ s⁻¹, respectively.
